Consider 21 molecules from PMC7591920 (Nature Communications, 2020).

Bridge positions count the residues as written; N and C are the ends. Square brackets hold non-standard residues; d marks the D form. Primed or numbered codes have the meaning given here. Ends that are not written are not given here. * marks the point of attachment. FITC = O=C1OC2(c3ccc(O)cc3Oc3cc(O)ccc32)c2ccc(NC(=S)*)cc21; PEG2′ = not defined here; Peg = not defined here; AEEA = NCCOCCOCC(=O)O

In general, Kd refers to a measure of binding affinity in units of concentration. High values mean lower affinity, low ones higher affinity. What is called IC50 is the midpoint of a concentration-inhibition curve. Read a low IC50 as greater potency.

What all share (conditions): both partners purified
For experiment [1], the target named is T1, GST-hTEAD1(209-426) (human, UniProt P28347 209-426).
T1 construct: A 3C protease site stands between tags and protein; also called human TEAD1; source: E. coli BL21 DE3 RIL, purified (His Trap, SEC); not shown: GST, N-terminal, kept
Kind of experiment: SPR; GST-hTEAD1 or mTEAD4 amine-coupled to a CM5 chip (10 mM MES pH 6.4), peptides as analytes; 10 mM HEPES, 150 mM NaCl, 0.05% Tween-20, pH 7.4, 20 °C, 30 µL/min; steady-state fit, 1:1 model. (In SPR one partner is held on a chip, and binding of the other changes the refractive index at the surface.)

For experiment [2], the target named is T2, mouse TEAD4(210-427) (mouse, UniProt Q62296 210-427).
T2 construct: mouse TEAD4, residues 210-427; The tag was cleaved with 3C protease only for the crystallisation; nothing is said for SPR and FP; also called mTEAD4; source: E. coli BL21 DE3 RIL, purified (His Trap, SEC)
The experiment is described as above.

For experiment [3], the target named is T2, mouse TEAD4(210-427). The experiment can be described thus: fluorescence polarisation; competition: acetylated peptide titrated (50 µM-6 pM) against mTEAD4 (400 nM) with a FITC-labelled tracer peptide (10 nM; tracer not named); read after 1 h. A general note: In fluorescence polarisation assays a small probe gives low polarisation when free and higher when bound to something large.

For experiment [4], the target named is T1, GST-hTEAD1(209-426). Kind of experiment: SPR; GST-hTEAD1 or mTEAD4 amine-coupled to a CM5 chip (10 mM MES pH 6.4), peptides as analytes; 10 mM HEPES, 150 mM NaCl, 0.05% Tween-20, pH 7.4, 20 °C, 30 µL/min; steady-state fit, 1:1 model. This is another data set of the same source.
Experiment [5] concerns the target T2, mouse TEAD4(210-427). The description is as above. This is another data set of the same source.
Experiment [6] has as its target T1, GST-hTEAD1(209-426). Described as above. The source holds these as a separate data set.
In experiment [7] the target is T2, mouse TEAD4(210-427). Described as above. The source holds these as a separate data set.
In experiment [8] the target is T2, mouse TEAD4(210-427). Described as above. The source holds these as a separate data set.
Experiment [9] concerns the target T1, GST-hTEAD1(209-426). The experiment can be described thus: fluorescence polarisation; direct: FITC-labelled peptide (10 nM) titrated with hTEAD1 or mTEAD4; 10 mM HEPES, 150 mM NaCl, 0.1% Tween-20, pH 7.4; read after 1 h.
Experiment [10] addresses T2, mouse TEAD4(210-427). The experiment is described as above.
For experiment [11], the target named is T1, GST-hTEAD1(209-426). Kind of experiment: SPR; GST-hTEAD1 or mTEAD4 amine-coupled to a CM5 chip (10 mM MES pH 6.4), peptides as analytes; 10 mM HEPES, 150 mM NaCl, 0.05% Tween-20, pH 7.4, 20 °C, 30 µL/min; steady-state fit, 1:1 model. This is another data set of the same source.
Experiment [12] deals with T2, mouse TEAD4(210-427). The experiment is described as above. The source holds these as a separate data set.
In experiment [13] the target is T1, GST-hTEAD1(209-426). The experiment can be described thus: fluorescence polarisation; direct: FITC-labelled peptide (10 nM) titrated with hTEAD1 or mTEAD4; 10 mM HEPES, 150 mM NaCl, 0.1% Tween-20, pH 7.4; read after 1 h. This is another data set of the same source.
Experiment [14] deals with T2, mouse TEAD4(210-427). The experiment is described as above. This is another data set of the same source.
Experiment [15] addresses T1, GST-hTEAD1(209-426). The experiment can be described thus: SPR; GST-hTEAD1 or mTEAD4 amine-coupled to a CM5 chip (10 mM MES pH 6.4), peptides as analytes; 10 mM HEPES, 150 mM NaCl, 0.05% Tween-20, pH 7.4, 20 °C, 30 µL/min; steady-state fit, 1:1 model. This is another data set of the same source.
For experiment [16], the target named is T2, mouse TEAD4(210-427). Described as above. The source holds these as a separate data set.

T2 sequence (Q62296 210-427): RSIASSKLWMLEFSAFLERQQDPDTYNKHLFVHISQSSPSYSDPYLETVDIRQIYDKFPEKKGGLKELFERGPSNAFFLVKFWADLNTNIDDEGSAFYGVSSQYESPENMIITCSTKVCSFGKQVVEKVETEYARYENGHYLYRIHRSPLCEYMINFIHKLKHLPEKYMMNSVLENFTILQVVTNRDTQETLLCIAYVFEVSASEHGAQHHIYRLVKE
T1 sequence (P28347 209-426): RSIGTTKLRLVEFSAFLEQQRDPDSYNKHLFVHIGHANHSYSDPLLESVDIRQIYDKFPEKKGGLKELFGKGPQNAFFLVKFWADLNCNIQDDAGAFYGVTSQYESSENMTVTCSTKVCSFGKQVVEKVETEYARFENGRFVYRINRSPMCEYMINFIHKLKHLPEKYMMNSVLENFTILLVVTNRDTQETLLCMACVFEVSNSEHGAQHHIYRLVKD

B1: peptide 4E(open), acetylated (peptide)
peptide: Ac-SVEDHFAKALGDTWLQIKAA
notes: VGL4 two-helix motif with E at 235, not cyclised; numbers count on: mouse VGL4 as in PDB 4LN0; Synthesised on Rink amide resin: C-terminal amide surmised; also called linear version of 4E; source: synthetic peptide
As for B1, the Kd in the experiment with GST-hTEAD1(209-426) [1] was 3.1 µM; with mouse TEAD4(210-427) [2], 2400 nM.

B2: peptide 15 (alanine scan of 4E), acetylated (peptide)
peptide: Ac-SAEDHFAKALGDTWLQIKAA
modifications: lactam 3-18
notes: macrocyclic VGL4 two-helix motif 4E with one alanine; numbers count on: mouse VGL4 as in PDB 4LN0; Synthesised on Rink amide resin: C-terminal amide surmised; source: synthetic peptide
B2 returned an IC50 with mouse TEAD4(210-427) [3] of 2100 ± 560 nM. For the same molecule, the Kd with GST-hTEAD1(209-426) [4] stood at 1000 ± 370 nM; with mouse TEAD4(210-427) [5], 1500 ± 370 nM.

B3: peptide 25 (alanine scan of 4E), acetylated (peptide)
peptide: Ac-SVEDHFAKALGDTWLAIKAA
modifications: lactam 3-18
notes: as for B2
As for B3, the IC50 with mouse TEAD4(210-427) [3] came out at 60 ± 10 nM. The Kd worked out at 750 ± 120 nM with GST-hTEAD1(209-426) [4] and 1300 ± 110 nM in the experiment with mouse TEAD4(210-427) [5].

B4: peptide 26 (alanine scan of 4E), acetylated (peptide)
peptide: Ac-SVEDHFAKALGDTWLQAKAA
modifications: lactam 3-18
notes: as for B2
Regarding B4, the IC50 with mouse TEAD4(210-427) [3] was 7400 ± 6100 nM. The figures for the Kd with GST-hTEAD1(209-426) [4] and in the experiment with mouse TEAD4(210-427) [5] were 2700 ± 1070 nM and 4400 ± 1350 nM, respectively.

B5: peptide 17 (alanine scan of 4E), acetylated (peptide)
peptide: Ac-SVEDAFAKALGDTWLQIKAA
modifications: lactam 3-18
notes: as for B2
For the molecule B5, the IC50 in the experiment with mouse TEAD4(210-427) [3] is greater than 100000 nM. In addition, the Kd with GST-hTEAD1(209-426) [4] and in the experiment with mouse TEAD4(210-427) [5] was greater than 100000 nM each time.

B6: peptide 14 (alanine scan of 4E), acetylated (peptide)
peptide: Ac-AVEDHFAKALGDTWLQIKAA
modifications: lactam 3-18
notes: as for B2
As to B6, the IC50 with mouse TEAD4(210-427) [3] amounted to 6100 ± 4300 nM. Besides, the Kd with GST-hTEAD1(209-426) [4] was found to be 1500 ± 20 nM; in the experiment with mouse TEAD4(210-427) [5], 2700 ± 250 nM.

B7: peptide 21 (alanine scan of 4E), acetylated (peptide)
peptide: Ac-SVEDHFAKALGATWLQIKAA
modifications: lactam 3-18
notes: as for B2
In the experiment with mouse TEAD4(210-427) [3], B7 showed an IC50 greater than 100000 nM. The Kd in the experiment with GST-hTEAD1(209-426) [4] and with mouse TEAD4(210-427) [5] was greater than 100000 nM in each case.

B8: peptide 18 (alanine scan of 4E), acetylated (peptide)
peptide: Ac-SVEDHAAKALGDTWLQIKAA
modifications: lactam 3-18
notes: as for B2
In turn, B8 displayed an IC50 with mouse TEAD4(210-427) [3] greater than 50000 nM. Besides, the Kd in the experiment with GST-hTEAD1(209-426) [4] and in the experiment with mouse TEAD4(210-427) [5] was greater than 100000 nM throughout.

B9: peptide 22 (alanine scan of 4E), acetylated (peptide)
peptide: Ac-SVEDHFAKALGDAWLQIKAA
modifications: lactam 3-18
notes: as for B2
B9 came in with a Kd with GST-hTEAD1(209-426) [4] of 91000 ± 14000 nM.

B10: peptide 4, acetylated (two-helix motif of VGL4) (peptide)
peptide: Ac-SVDDHFAKALGDTWLQIKAA
notes: VGL4 two-helix motif (helices alpha2/alpha3); Synthesised on Rink amide resin: C-terminal amide surmised; source: synthetic peptide
On to B10, for which the values for the Kd with GST-hTEAD1(209-426) [6] and with mouse TEAD4(210-427) [7] were 830 ± 780 nM and 1500 ± 1000 nM, respectively.

B11: peptide 20 (alanine scan of 4E), acetylated (peptide)
peptide: Ac-SVEDHFAKAAGDTWLQIKAA
modifications: lactam 3-18
notes: as for B2
As for B11, the IC50 in the experiment with mouse TEAD4(210-427) [3] was greater than 100000 nM. In addition, the Kd in the experiment with GST-hTEAD1(209-426) [4] and with mouse TEAD4(210-427) [5] was greater than 100000 nM throughout.

B12: peptide 23 (alanine scan of 4E), acetylated (peptide)
peptide: Ac-SVEDHFAKALGDTALQIKAA
modifications: lactam 3-18
notes: as for B2
B12 displayed a Kd with GST-hTEAD1(209-426) [4] of 7800 ± 150 nM.

B13: peptide 24 (alanine scan of 4E), acetylated (peptide)
peptide: Ac-SVEDHFAKALGDTWAQIKAA
modifications: lactam 3-18
notes: as for B2
In the experiment with mouse TEAD4(210-427) [3], B13 registered an IC50 of 100 ± 10 nM. The results for the Kd with GST-hTEAD1(209-426) [4] and with mouse TEAD4(210-427) [5] were 1100 ± 60 nM and 2000 ± 140 nM, respectively.

B14: peptide 19 (alanine scan of 4E), acetylated (peptide)
peptide: Ac-SVEDHFAAALGDTWLQIKAA
modifications: lactam 3-18
notes: as for B2
B14 registered an IC50 with mouse TEAD4(210-427) [3] of 280 ± 90 nM. For the same molecule, the values for the Kd in the experiment with GST-hTEAD1(209-426) [4] and with mouse TEAD4(210-427) [5] were 1700 ± 10 nM and 2800 ± 60 nM, respectively.

B15: peptide 16 (alanine scan of 4E), acetylated (peptide)
peptide: Ac-SVEAHFAKALGDTWLQIKAA
modifications: lactam 3-18
notes: as for B2
For the molecule B15, in the experiment with mouse TEAD4(210-427) [3], the IC50 was found to be 3000 ± 760 nM. Also, the Kd in the experiment with GST-hTEAD1(209-426) [4] is 740 ± 460 nM; with mouse TEAD4(210-427) [5] it was 1600 ± 690 nM.

B16: YAP(50-100) (peptide, UniProt P46937 50-100, looked up)
peptide: AGHQIVHVRGDSETDLEALFNAVMNPKTANVPQTVPMRLRKLPDSFFKPPE
notes: yes-associated protein YAP, residues 50-100
As to B16, the dissociation constant Kd with mouse TEAD4(210-427) [8] came to 700 nM.

B17: FITC-labelled peptide 7 (Tat-PEG2-4E) (peptide)
peptide: GRKKRRQRRRPQ[PEG2′]SVEDHFAKALGDTWLQIKAA
modifications: not fully specified (some residues); also: FITC label, place not given here
notes: also called 7 (FITC-Peg); source: synthetic peptide
Regarding B17, the Kd in the experiment with GST-hTEAD1(209-426) [9] was 147 ± 70 nM; with mouse TEAD4(210-427) [10], 51 ± 5 nM.

B18: VGL4(203-256), acetylated (peptide 1) (peptide)
peptide: Ac-DPVVEEHFRRSLGKNYKEPEPAPNSVSITGSVDDHFAKALGDTWLQIKAAKDSA
notes: numbers count on: mouse VGL4 as in PDB 4LN0; Synthesised on Rink amide resin: C-terminal amide surmised (masses fit); also called hVGL4(203-256); source: synthetic peptide
As to B18, the Kd in the experiment with GST-hTEAD1(209-426) [11] came out at 4.3 µM; with mouse TEAD4(210-427) [12], 3.1 µM.

B19: FITC-labelled peptide 4E (peptide)
peptide: {FITC-Peg}-SVEDHFAKALGDTWLQIKAA
modifications: lactam 3-18; reading uncertain
notes: macrocyclic VGL4 two-helix motif 4E; numbers count on: mouse VGL4 as in PDB 4LN0; Rink amide resin: C-terminal amide surmised; also called 4E (FITC-Peg); source: synthetic peptide
B19: the Kd turned out to be 168 ± 37 nM with GST-hTEAD1(209-426) [9] and 32 ± 5 nM with mouse TEAD4(210-427) [10].

B20: FITC-labelled VGL4(203-256) (peptide)
peptide: DPVVEEHFRRSLGKNYKEPEPAPNSVSITGSVDDHFAKALGDTWLQIKAAKDSA
modifications: also: FITC label, place not given here
notes: numbers count on: mouse VGL4 as in PDB 4LN0; also called FITC-VGL4
For the molecule B20, the Kd stood at 17 ± 2.5 nM with GST-hTEAD1(209-426) [13] and 9.2 ± 0.6 nM with mouse TEAD4(210-427) [14].

B21: peptide 7, acetylated (Tat-PEG2-4E) (peptide)
peptide: Ac-GRKKRRQRRRPQ[AEEA]SVEDHFAKALGDTWLQIKAA-NH2
modifications: lactam 16-31; not fully specified (some residues)
notes: cell-penetrating Tat peptide; macrocyclic VGL4 two-helix motif 4E; numbers count on: mouse VGL4 as in PDB 4LN0; The two parts are joined by a PEG2 unit that is no amino acid; Rink amide resin: C-terminal amide surmised; source: synthetic peptide
For the molecule B21, the Kd is 830 ± 780 nM with GST-hTEAD1(209-426) [15] and 1500 ± 1000 nM with mouse TEAD4(210-427) [16].
